Reference: US9663581

Target: FcγRIIIa on NK cells (human) (UniProt P08637)
Experiment: cell-based or functional assay

Sequence of UniProt P08637 (P08637 17-254): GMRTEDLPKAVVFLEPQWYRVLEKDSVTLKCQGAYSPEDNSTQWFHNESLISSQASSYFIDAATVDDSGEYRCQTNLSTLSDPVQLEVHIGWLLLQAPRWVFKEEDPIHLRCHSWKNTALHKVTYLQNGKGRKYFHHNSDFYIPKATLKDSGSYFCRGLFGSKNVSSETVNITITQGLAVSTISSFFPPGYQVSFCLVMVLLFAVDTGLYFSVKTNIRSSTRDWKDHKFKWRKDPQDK

## wild type rituximab (antibody)
  ADCC EC50 (LDH release, Raji target cells, human PBMC effector cells): 0.046 µg/mL
